What all share (type): cell-based
The subject of experiment [1] is primary human bladder epithelial cells grown from IC patient biopsy specimens. As to the kind of experiment: Inhibition of HPLC-purified APF activity by rhHB-EGF, 3H-thymidine incorporation, cells from IC patient biopsies. The note with it: 10 pg/10^7 cells HPLC-purified APF, 48 hours; cells from IC patients; FIG. 10B. On the procedure:
(§1) Primary normal adult human bladder epithelial (HBE) cells were cultured by the method described above in Part II. On the third day of incubation, cell medium was replaced by serum free MEM containing the less than 3 kDa fraction (i.e, containing the APF) of urine specimens from IC patients or controls (i.e., that part containing the anti-proliferative factor or APF described in related application Ser. No. 08/944,202), or HPLC-purified APF or its mock control along with varying concentrations of recombinant HB-EGF (0-100 ng/ml), EGF (0-100 ng/ml), or IGF-1 (0-300 pg/ml) [all from R & D Systems, Minneapolis, Minn.] diluted in phosphate buffered saline (1:1:1). Urine was prepared by the method described above in Part II and HPLC purified APF was prepared as described above. Following an additional 48 hours of incubation at 37 degrees C. in a 5% CO2 atmosphere, cell proliferation was assessed by ^3H-thymidine incorporation according to the published methods^38.
(§2) Cell proliferation was determined 48 hours later by 3H-thymidine incorporation. Bar values indicate the mean of triplicate determinations. Vertical lines indicate the standard of error of the mean.

Experiment [2] has as its system primary human bladder epithelial cells grown from normal bladder tissue. Briefly: Inhibition of HPLC-purified APF activity by rhHB-EGF, 3H-thymidine incorporation, cells from normal bladder tissue. The following applies: 10 pg/10^7 cells HPLC-purified APF, 48 hours; cells from controls; FIG. 10A. On the procedure:
as §1, §2

Experiment [3] concerns Normal human bladder epithelial cells. Briefly: Inhibition of APF activity by recombinant growth factors, low molecular weight urine fractions, 3H-thymidine incorporation. As to the method: as §1
Normal human bladder epithelial cells were exposed simultaneously to recombinant human growth factors (HB-EGF, EGF, or IGF1) and low molecular weight fractions from IC patients or control urine specimens. Cell proliferation was determined 48 hours later by 3H-thymidine incorporation (FIGS. 6A-6C). Bar values indicate the mean of 5-8 determinations. Vertical lines indicate the standard error of the mean.

B1: heparin-binding epidermal growth factor-like growth factor (protein, UniProt Q99075 63-148, looked up)
Heparin-binding EGF-like …: DLQEADLDLLRVTLSSKPQALATPNKEEHGKRKKKGKGLGKKRDPCLRKYKDFCIHGECKYVKELRAPSCICHPGYHGERCHGLSL
B1: the “inhibition of APF's antiproliferative effects” value in experiment [1] and in experiment [2] was “can inhibit APF's antiproliferative effects” each time. Moreover, the “proliferation of cells exposed to urine from IC patients” value in experiment [3] (high concentrations of rhHB-EGF, compared with cells exposed to control urines, FIG. 6A) is “stimulated, more than that of cells exposed to control urines”. Also, the “inhibition of APF antiproliferative activity” value in experiment [3] (simultaneous exposure to recombinant growth factor and <3 kDa urine fraction, 48 hours, HB-EGF 0-100 ng/ml (effect evident at 10 ng/ml), EGF 0-100 ng/ml, IGF-1 0-300 pg/ml, FIGS. 6A-6C) is “resulted in inhibition of APF antiproliferative activity”.

The values are drawn from patent publication US20010000783A1, “Treatment of interstitial cystitis” (priority 1998, published 2001).
